These results are taken from patent US20250215412A1 (NOVOZYMES A S, published 2025).

Where only a bound is given, the exact number is not on record here.

For the assay, the target named is T1, Chryseobacterium sp-62563 deamidase polypeptide (second polypeptide, deamidase domain), wildtype (Chryseobacterium sp-62563).
T1 sequence: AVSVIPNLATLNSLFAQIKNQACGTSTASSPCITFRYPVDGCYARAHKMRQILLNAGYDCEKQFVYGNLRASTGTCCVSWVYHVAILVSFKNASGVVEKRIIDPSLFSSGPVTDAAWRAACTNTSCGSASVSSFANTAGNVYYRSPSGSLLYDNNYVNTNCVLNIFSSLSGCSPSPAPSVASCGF
Nature of the assay: cell-based or functional assay.

B1: Chryseobacterium sp-62563 propeptide V98M (protein)
chain: NQDPNLVAKESNETAMKDFGKTVPVGIEKEDGKFKISFMVTAQPYEIKDSKENAAYISMIKTAVENETPIHVFLKANTNEIAKVDKATDDDIRYFKSMFTKEVKEENRK
B1: the Relative activity of maturated deamidase (% initial rate) came out at 41.

B2: Chryseobacterium sp-62563 propeptide P69M (protein)
chain: NQDPNLVAKESNETAMKDFGKTVPVGIEKEDGKFKISFMVTAQPYEIKDSKENAAYISMIKTAVENETMIHVFLKANTNEIAKVDKATDDDIRYFKSVFTKEVKEENRK
For B2, the NanoDSF thermal unfolding temperature stood at 79.1 ° C and the Relative activity of maturated deamidase (% initial rate) is 67.

B3: Chryseobacterium sp-62563 propeptide K96W (protein)
chain: NQDPNLVAKESNETAMKDFGKTVPVGIEKEDGKFKISFMVTAQPYEIKDSKENAAYISMIKTAVENETPIHVFLKANTNEIAKVDKATDDDIRYFWSVFTKEVKEENRK
B3 yielded a Relative activity of maturated deamidase (% initial rate) of 51.

B4: Chryseobacterium sp-62563 propeptide V98K (protein)
chain: NQDPNLVAKESNETAMKDFGKTVPVGIEKEDGKFKISFMVTAQPYEIKDSKENAAYISMIKTAVENETPIHVFLKANTNEIAKVDKATDDDIRYFKSKFTKEVKEENRK
The molecule B4 gave a Relative activity of maturated deamidase (% initial rate) greater than 100.

B5: Chryseobacterium sp-62563 propeptide K96Y (protein)
chain: NQDPNLVAKESNETAMKDFGKTVPVGIEKEDGKFKISFMVTAQPYEIKDSKENAAYISMIKTAVENETPIHVFLKANTNEIAKVDKATDDDIRYFYSVFTKEVKEENRK
As for B5, the Relative activity of maturated deamidase (% initial rate) came out at 73.

B6: Chryseobacterium sp-62563 propeptide V98H (protein)
chain: NQDPNLVAKESNETAMKDFGKTVPVGIEKEDGKFKISFMVTAQPYEIKDSKENAAYISMIKTAVENETPIHVFLKANTNEIAKVDKATDDDIRYFKSHFTKEVKEENRK
On to B6, for which the Relative activity of maturated deamidase (% initial rate) is 54.

B7: Chryseobacterium sp-62563 propeptide V98E (protein)
chain: NQDPNLVAKESNETAMKDFGKTVPVGIEKEDGKFKISFMVTAQPYEIKDSKENAAYISMIKTAVENETPIHVFLKANTNEIAKVDKATDDDIRYFKSEFTKEVKEENRK
The molecule B7 came in with a Relative activity of maturated deamidase (% initial rate) greater than 100.

B8: Chryseobacterium sp-62563 propeptide V98A (protein)
chain: NQDPNLVAKESNETAMKDFGKTVPVGIEKEDGKFKISFMVTAQPYEIKDSKENAAYISMIKTAVENETPIHVFLKANTNEIAKVDKATDDDIRYFKSAFTKEVKEENRK
Turning to B8, the Relative activity of maturated deamidase (% initial rate) turned out to be 68.

B9: Chryseobacterium sp-62563 propeptide P69Q (protein)
chain: NQDPNLVAKESNETAMKDFGKTVPVGIEKEDGKFKISFMVTAQPYEIKDSKENAAYISMIKTAVENETQIHVFLKANTNEIAKVDKATDDDIRYFKSVFTKEVKEENRK
In turn, B9 came in with a NanoDSF thermal unfolding temperature of 74.1 ° C and a Relative activity of maturated deamidase (% initial rate) greater than 100.

B10: Chryseobacterium sp-62563 propeptide V98G (protein)
chain: NQDPNLVAKESNETAMKDFGKTVPVGIEKEDGKFKISFMVTAQPYEIKDSKENAAYISMIKTAVENETPIHVFLKANTNEIAKVDKATDDDIRYFKSGFTKEVKEENRK
B10 yielded a Relative activity of maturated deamidase (% initial rate) greater than 100.

B11: Chryseobacterium sp-62563 propeptide V98C (protein)
chain: NQDPNLVAKESNETAMKDFGKTVPVGIEKEDGKFKISFMVTAQPYEIKDSKENAAYISMIKTAVENETPIHVFLKANTNEIAKVDKATDDDIRYFKSCFTKEVKEENRK
As for B11, the Relative activity of maturated deamidase (% initial rate) stood at 65.

B12: Chryseobacterium sp-62563 propeptide S97R (protein)
chain: NQDPNLVAKESNETAMKDFGKTVPVGIEKEDGKFKISFMVTAQPYEIKDSKENAAYISMIKTAVENETPIHVFLKANTNEIAKVDKATDDDIRYFKRVFTKEVKEENRK
For B12, the Relative activity of maturated deamidase (% initial rate) was determined as 30.
